Results published in patent US20180044434A1 (PUBLIC UNIVERSITY CORPORATION YOKOHAMA CITY UNIVERSITY, published 2018).
Residue numbers refer to the chain shown, from its start.

B1: humanized anti-PAD4 antibody derived from H7, VH H4.00 / VL L4.15 (antibody, IgG1, V domains shown)
VH: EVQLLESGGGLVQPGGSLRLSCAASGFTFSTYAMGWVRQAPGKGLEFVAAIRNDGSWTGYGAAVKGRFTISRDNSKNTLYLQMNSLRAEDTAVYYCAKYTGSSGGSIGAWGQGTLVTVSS
VL: SYELTQPPSVSVSPGQTARITCSGGSGRYYYGWYQQKPGQAPVTVIYSSTHRPSGIPERFSGSNSGNTTTLTISGVQAEDEADYYCGTADSSSYVFGGGTKLTVLG
notes: IgG1 kappa; also called H7 H4.00/L4.15
B2: humanized anti-PAD4 antibody derived from H7, VH H4.15 / VL L4.17 (antibody, IgG1, V domains shown)
VH: EVQLLESGGGLVQPGGSLRLSCAASGFTFSTYAMGWVRQAPGKGLEFVSAIRNDGSWTGYGAAVKGRFTISRDNSKNTVYLQMNSLRAEDTAVYYCAKYTGSSGGSIGAWGQGTLVTVSS
VL: B1 VL with N64T
notes: IgG1 kappa; also called H7 H4.15/L4.17
B3: humanized anti-PAD4 antibody derived from H7, VH H4.32 / VL L4.00 (antibody, IgG1, V domains shown)
VH: B2 VH with S49A, F68V
VL: B1 VL with T44L, N64S, N67T, T69V
notes: IgG1 kappa; also called H7 H4.32/L4.00
B4: humanized anti-PAD4 antibody derived from H7, VH H4.32 / VL L4.15 (antibody, IgG1, V domains shown)
VH: B2 VH with S49A, F68V
VL: B1 VL
notes: IgG1 kappa; also called H7 H4.32/L4.15
B5: humanized anti-PAD4 antibody derived from H7, VH H4.00 / VL L4.06 (antibody, IgG1, V domains shown)
VH: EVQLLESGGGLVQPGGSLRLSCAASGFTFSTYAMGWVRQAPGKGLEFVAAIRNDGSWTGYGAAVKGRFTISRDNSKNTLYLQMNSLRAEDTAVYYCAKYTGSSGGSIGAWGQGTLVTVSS
VL: B1 VL with N64Y
notes: IgG1 kappa; also called H7 H4.00/L4.06
B6: humanized anti-PAD4 antibody derived from H7, VH H4.15 / VL L4.00 (antibody, IgG1, V domains shown)
VH: B2 VH
VL: B1 VL with T44L, N64S, N67T, T69V
notes: IgG1 kappa; also called H7 H4.15/L4.00
B7: humanized anti-PAD4 antibody derived from H7, VH H4.00 / VL L4.00 (antibody, IgG1, V domains shown)
VH: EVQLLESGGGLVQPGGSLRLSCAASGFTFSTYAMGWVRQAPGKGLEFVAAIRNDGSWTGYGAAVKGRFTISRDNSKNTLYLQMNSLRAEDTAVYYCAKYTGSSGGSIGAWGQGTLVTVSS
VL: B1 VL with T44L, N64S, N67T, T69V
notes: IgG1 kappa; also called H7 H4.00/L4.00
B8: humanized anti-PAD4 antibody derived from G8, VH H4.00 / VL L4.17 (antibody, human IgG1, kappa, V domains shown)
VH: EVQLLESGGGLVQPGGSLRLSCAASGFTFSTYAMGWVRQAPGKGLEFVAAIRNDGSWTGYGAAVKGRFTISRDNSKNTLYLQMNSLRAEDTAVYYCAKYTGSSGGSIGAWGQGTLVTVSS
VL: SYELTQPPSVSVSPGQTARITCSGGNRNYYYGWYQQKPGQAPVTVIYANDKRPSGIPERFSGSTSGNTTTLTISGVQAEDEADYYCGTADTGKYVFGGGTKLTVLG
notes: IgG1 kappa; also called G8 H4.00/L4.17
B9: humanized anti-PAD4 antibody derived from G8, VH H4.00 / VL L4.06 (antibody, human IgG1, kappa, V domains shown)
VH: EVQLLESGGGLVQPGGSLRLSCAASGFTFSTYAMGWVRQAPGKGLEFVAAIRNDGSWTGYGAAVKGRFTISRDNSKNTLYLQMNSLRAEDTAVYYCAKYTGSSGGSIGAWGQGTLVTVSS
VL: B8 VL with T64Y
notes: IgG1 kappa; also called G8 H4.00/L4.06
B10: humanized anti-PAD4 antibody derived from H7, VH H4.32 / VL L4.06 (antibody, IgG1, V domains shown)
VH: B2 VH with S49A, F68V
VL: B1 VL with N64Y
notes: IgG1 kappa; also called H7 H4.32/L4.06
B11: humanized anti-PAD4 antibody derived from H7, VH H4.15 / VL L4.15 (antibody, IgG1, V domains shown)
VH: B2 VH
VL: B1 VL
notes: IgG1 kappa; also called H7 H4.15/L4.15
B12: humanized anti-PAD4 antibody derived from H7, VH H4.15 / VL L4.06 (antibody, IgG1, V domains shown)
VH: B2 VH
VL: B1 VL with N64Y
notes: IgG1 kappa; also called H7 H4.15/L4.06
B13: humanized anti-PAD4 antibody derived from H7, VH H4.32 / VL L4.17 (antibody, IgG1, V domains shown)
VH: B2 VH with S49A, F68V
VL: B1 VL with N64T
notes: IgG1 kappa; also called H7 H4.32/L4.17
B14: humanized anti-PAD4 antibody derived from H7, VH H4.00 / VL L4.17 (antibody, IgG1, V domains shown)
VH: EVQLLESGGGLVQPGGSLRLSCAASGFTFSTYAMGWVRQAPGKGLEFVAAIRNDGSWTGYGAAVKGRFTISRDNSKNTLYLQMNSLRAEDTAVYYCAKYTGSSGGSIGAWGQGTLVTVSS
VL: B1 VL with N64T
notes: IgG1 kappa; also called H7 H4.00/L4.17
B15: humanized anti-PAD4 antibody derived from G8, VH H4.15 / VL L4.00 (antibody, human IgG1, kappa, V domains shown)
VH: B2 VH
VL: B8 VL with T44L, T64S, N67T, T69V
notes: IgG1 kappa; also called G8 H4.15/L4.00
B16: humanized anti-PAD4 antibody derived from G8, VH H4.15 / VL L4.17 (antibody, human IgG1, kappa, V domains shown)
VH: B2 VH
VL: B8 VL
notes: IgG1 kappa; also called G8 H4.15/L4.17
B17: humanized anti-PAD4 antibody derived from G8, VH H4.15 / VL L4.06 (antibody, human IgG1, kappa, V domains shown)
VH: B2 VH
VL: B8 VL with T64Y
notes: IgG1 kappa; also called G8 H4.15/L4.06

Molecular target: T1, full-length recombinant human PAD4 (human, UniProt Q9UM07 1-663)
T1 construct: Full-length recombinant; also called peptidylarginine deiminase 4
T1 sequence (Q9UM07 whole entry): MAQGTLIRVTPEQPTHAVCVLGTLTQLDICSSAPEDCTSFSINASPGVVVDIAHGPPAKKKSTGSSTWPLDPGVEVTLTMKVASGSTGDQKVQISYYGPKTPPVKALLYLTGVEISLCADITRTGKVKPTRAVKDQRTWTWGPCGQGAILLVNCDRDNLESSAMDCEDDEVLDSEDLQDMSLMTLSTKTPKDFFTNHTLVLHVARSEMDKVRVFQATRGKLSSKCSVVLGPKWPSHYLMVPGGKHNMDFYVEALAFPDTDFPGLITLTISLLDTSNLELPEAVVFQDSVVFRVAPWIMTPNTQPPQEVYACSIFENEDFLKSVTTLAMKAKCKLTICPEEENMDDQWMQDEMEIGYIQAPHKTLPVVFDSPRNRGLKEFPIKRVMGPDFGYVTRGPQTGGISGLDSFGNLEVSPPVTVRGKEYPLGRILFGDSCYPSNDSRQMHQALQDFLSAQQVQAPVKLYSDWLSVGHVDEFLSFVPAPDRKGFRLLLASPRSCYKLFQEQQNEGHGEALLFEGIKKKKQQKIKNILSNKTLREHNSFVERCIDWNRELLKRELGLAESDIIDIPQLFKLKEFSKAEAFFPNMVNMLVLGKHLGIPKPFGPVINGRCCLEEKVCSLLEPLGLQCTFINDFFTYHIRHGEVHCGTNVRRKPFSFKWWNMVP
Experiment: ELISA, immobilized human PAD4

Row | Binder | O.D. 490/630 at 0.0078125 µg/mL | O.D. 490/630 at 0.015625 µg/mL | O.D. 490/630 at 0.03125 µg/mL | O.D. 490/630 at 0.0625 µg/mL | O.D. 490/630 at 0.125 µg/mL | O.D. 490/630 at 0.25 µg/mL | O.D. 490/630 at 0.5 µg/mL | O.D. 490/630 at 1 µg/mL
1 | B1 | 1.31 | 1.71 | 1.89 | 1.92 | 1.87 | 1.89 | 1.87 | 1.86
2 | B2 | 1.31 | 1.63 | 1.81 | 1.9 | 1.81 | 1.81 | 1.82 | 1.77
3 | B3 | 0.389 | 0.713 | 1.17 | 1.65 | 1.77 | 1.85 | 1.81 | 1.82
4 | B4 | 1.34 | 1.77 | 1.89 | 1.94 | 1.87 | 1.84 | 1.78 | 1.79
5 | B5 | 1.26 | 1.75 | 1.9 | 2 | 1.87 | 1.89 | 1.86 | 1.86
6 | B6 | 0.429 | 0.764 | 1.23 | 1.71 | 1.84 | 1.9 | 1.88 | 1.86
7 | B7 | 0.441 | 0.752 | 1.21 | 1.72 | 1.88 | 1.89 | 1.91 | 1.92
8 | B8 | 1.31 | 1.62 | 1.84 | 1.89 | 1.82 | 1.81 | 1.8 | 1.8
9 | B9 | 1.22 | 1.64 | 1.83 | 1.95 | 1.85 | 1.81 | 1.83 | 1.8
10 | B10 | 1.22 | 1.64 | 1.9 | 1.94 | 1.82 | 1.86 | 1.81 | 1.77
11 | B11 | 1.25 | 1.65 | 1.82 | 1.87 | 1.83 | 1.84 | 1.83 | 1.82
12 | B12 | 1.22 | 1.68 | 1.82 | 1.83 | 1.84 | 1.82 | 1.82 | 1.84
13 | B13 | 1.28 | 1.77 | 1.95 | 1.98 | 1.86 | 1.86 | 1.81 | 1.79
14 | B14 | 1.3 | 1.71 | 1.85 | 1.91 | 1.87 | 1.86 | 1.85 | 1.86
15 | B15 | 0.707 | 1.11 | 1.52 | 1.84 | 1.87 | 1.87 | 1.86 | 1.85
16 | B16 | 1.24 | 1.66 | 1.86 | 1.93 | 1.87 | 1.81 | 1.82 | 1.83
17 | B17 | 1.31 | 1.68 | 1.9 | 1.92 | 1.91 | 1.87 | 1.79 | 1.77
